This test has as its target CD3 on human pan T cells (human) (UniProt P07766). Nature of the test: flow cytometry, saturation binding on human pan T cells (KdT).

Chain of CD3 on human pan T cells (human) (P07766 23-207 limits assumed): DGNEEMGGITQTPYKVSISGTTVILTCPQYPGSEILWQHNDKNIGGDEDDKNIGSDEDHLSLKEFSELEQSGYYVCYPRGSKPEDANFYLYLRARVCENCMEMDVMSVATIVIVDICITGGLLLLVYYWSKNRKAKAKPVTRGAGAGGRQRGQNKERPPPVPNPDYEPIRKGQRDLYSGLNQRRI

The substance “AlexaFluor488 SP34-2 anti-CD3 (antibody)” returned a Kd of 5.6 nM.

(Values after patent publication US20190359711A1.)
